Reference: paper PMC12459236

Biological target: SpyTag-AP205 recombinant protein (self-assembled AP205 nanoparticles) (bacteriophage AP205)
Test: SDS-PAGE of covalent coupling; purified ST-AP205 and CTD-SC mixed at designated molar ratios, left overnight at 4°C; covalent SpyTag-SpyCatcher coupling read by SDS-PAGE

PDCoV S1-CTD-SpyCatcher recombinant protein
rate of formation of CTDnps (ST-AP205:CTD-SC molar ratio 4:10): > 80%
